Among the data in US20180036441A1 (Dana-Farber, published 2018) are EC50, geometric mean and koff values, retold here.

Changes are numbered by the printed parent chain.

For test [1], the target named is T1, MUC1 on HCT116/MUC1 cells (UniProt P15941 24-1255, limits assumed).
T1 construct: whole, on cells; also called MUC1 overexpressed cell line
Briefly: FACS titration on HCT116/MUC1 cells. As to the method: (§1) To assess cell binding, 2×10⁵ HCT116/MUC1 cells per well were washed with PBS twice and incubated in 200 μl of serial dilutions of chimeric or humanized antibodies for 1 hour at room temperature. After washing 3 times with PBS, secondary antibody (2 μg/ml Alexa Flour®488 goat anti-human IgG) was added to cells and incubated for 30 minutes at room temperature. After washing with PBS, cells were analyzed by using FACSCalibur (BD Bioscience, San Jose, Calif.) and Flowjo software.

Test [2] addresses T1, MUC1 on HCT116/MUC1 cells. Briefly: FACS titration, HCT116/MUC1 cells, antibody at 125 nM. As to the method:
as §1

The target of test [3] is T1, MUC1 on HCT116/MUC1 cells. Nature of the test: FACS titration, HCT116/MUC1 cells, antibody at 250 nM. Here is the method:
as §1

For test [4], the target named is T1, MUC1 on HCT116/MUC1 cells. Nature of the test: FACS titration, HCT116/MUC1 cells, antibody at 500 nM. As to the method:
as §1

Test [5] addresses T1, MUC1 on HCT116/MUC1 cells. Briefly: FACS titration, HCT116/MUC1 cells, antibody at 62.5 nM. As to the method:
as §1

A further test addresses T2, MUC1-SEA-His protein (UniProt P15941 1039-1148, limits assumed).
T2 construct: domain: SEA; Recombinant antigen used for ELISA coating and as Biacore analyte; also called MUC-SEA-His; antigen protein; not shown: His tag
T2 sequence (looked up): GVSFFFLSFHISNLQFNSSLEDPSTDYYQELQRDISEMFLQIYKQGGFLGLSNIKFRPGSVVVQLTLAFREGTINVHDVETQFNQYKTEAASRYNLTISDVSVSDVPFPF
Nature of the test: SPR Biacore T200, antibody captured, antigen as analyte. As to the method: Antibody affinity was determined using a Surface Plasmon Resonance (SPR) biosensor, Biacore T200 (GE Healthcare). Antibody was immobilized on the sensor chip through Fc capture method. Antigen protein was used as the analyte. The data of dissociation (kd) and association (ka) rate constants were obtained using Biacore T200 evaluation software. The apparent equilibrium dissociation constants (KD) were calculated from the ratio of kd over ka. For affinity ranking, twenty-five humanized antibodies plus chimericantibody were injected and captured on sensor chip individually. The antibodies were ranked based on their dissociation rates (kd).

Test [6] has as its target T1, MUC1 on HCT116/MUC1 cells. Nature of the test: FACS titration, HCT116/MUC1 cells, antibody at 0.244 nM. As to the method: as §1
The target of test [7] is T1, MUC1 on HCT116/MUC1 cells. Briefly: FACS titration, HCT116/MUC1 cells, antibody at 0.488 nM. Here is the method:
as §1

The target of test [8] is T1, MUC1 on HCT116/MUC1 cells. Nature of the test: FACS titration, HCT116/MUC1 cells, antibody at 0.977 nM. As to the method: as §1
Test [9] has as its target T1, MUC1 on HCT116/MUC1 cells. Briefly: FACS titration, HCT116/MUC1 cells, antibody at 1.953 nM. As to the method: as §1
For test [10], the target named is T1, MUC1 on HCT116/MUC1 cells. Nature of the test: FACS titration, HCT116/MUC1 cells, antibody at 3.906 nM. As to the method: as §1
Test [11] concerns the target T1, MUC1 on HCT116/MUC1 cells. Briefly: FACS titration, HCT116/MUC1 cells, antibody at 31.25 nM. As to the method:
as §1

Test [12] addresses T1, MUC1 on HCT116/MUC1 cells. Briefly: FACS titration, HCT116/MUC1 cells, antibody at 7.812 nM. Here is the method:
as §1

Test [13] deals with T1, MUC1 on HCT116/MUC1 cells. Briefly: FACS titration, HCT116/MUC1 cells, antibody at 15.625 nM. Here is the method:
as §1

T1 sequence (P15941 24-1255 limits assumed): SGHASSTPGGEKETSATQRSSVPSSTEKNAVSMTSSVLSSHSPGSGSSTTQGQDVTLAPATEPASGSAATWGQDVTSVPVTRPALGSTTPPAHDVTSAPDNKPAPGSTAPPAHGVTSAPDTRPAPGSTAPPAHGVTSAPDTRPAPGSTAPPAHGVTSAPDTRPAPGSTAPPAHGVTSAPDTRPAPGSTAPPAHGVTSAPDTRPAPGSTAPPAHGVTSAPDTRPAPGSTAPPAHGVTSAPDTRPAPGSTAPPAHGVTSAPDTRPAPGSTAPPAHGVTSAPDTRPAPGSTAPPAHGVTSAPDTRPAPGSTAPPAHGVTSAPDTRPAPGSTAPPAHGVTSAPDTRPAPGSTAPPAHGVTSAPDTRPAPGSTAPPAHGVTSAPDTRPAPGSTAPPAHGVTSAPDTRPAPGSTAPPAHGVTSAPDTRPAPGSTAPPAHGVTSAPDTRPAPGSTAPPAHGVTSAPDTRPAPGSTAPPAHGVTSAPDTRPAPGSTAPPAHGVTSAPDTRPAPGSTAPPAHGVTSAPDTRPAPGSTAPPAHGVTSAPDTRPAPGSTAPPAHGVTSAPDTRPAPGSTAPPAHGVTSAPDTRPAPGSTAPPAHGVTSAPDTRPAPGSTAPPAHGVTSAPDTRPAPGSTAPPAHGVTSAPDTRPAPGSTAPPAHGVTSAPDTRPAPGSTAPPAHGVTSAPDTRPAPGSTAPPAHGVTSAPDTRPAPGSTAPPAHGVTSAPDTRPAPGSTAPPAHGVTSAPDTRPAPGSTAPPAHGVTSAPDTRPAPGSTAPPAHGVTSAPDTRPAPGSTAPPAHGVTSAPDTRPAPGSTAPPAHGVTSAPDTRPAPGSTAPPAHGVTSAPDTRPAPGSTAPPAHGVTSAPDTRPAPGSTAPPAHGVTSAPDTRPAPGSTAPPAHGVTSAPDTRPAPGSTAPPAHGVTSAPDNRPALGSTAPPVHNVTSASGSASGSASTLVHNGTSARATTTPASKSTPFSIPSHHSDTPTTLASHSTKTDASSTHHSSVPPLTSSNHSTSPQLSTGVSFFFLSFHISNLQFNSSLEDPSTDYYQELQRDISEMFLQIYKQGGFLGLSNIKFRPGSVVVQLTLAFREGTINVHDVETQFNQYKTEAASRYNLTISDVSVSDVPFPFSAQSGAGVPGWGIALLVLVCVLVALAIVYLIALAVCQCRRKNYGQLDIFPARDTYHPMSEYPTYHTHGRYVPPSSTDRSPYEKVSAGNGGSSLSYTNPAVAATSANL

B1: VH2 + VL1 (antibody, V domains shown)
VH: QVQLVQSGAEVKKPGASVKVSCKASGYAFSNFWMNWVRQAPGQGLEWMGQIYPGDGDTNYNGKFKGRVTMTRDTSTSTVYMELSSLRSEDTAVYYCARSYYRSAWFAYWGQGTLVTVSS
VL: EIVLTQSPDFQSVTPKEKVTITCRASQSIGTSIHWYQQKPDQSPKLLIKYASESISGVPSRFSGSGSGTDFTLTINSLEAEDAATYYCQQSNNWPLTFGQGTKVEIK
notes: Humanized IgG expressed in HEK293; also called humanized antibody VH2+VL1
For the molecule B1, the EC50 in [1] was found to be 58.6 nM. Moreover, the geometric mean worked out at 306 in test [2]; 337 in [3]; 342 in [4]; 265 in [5]; 3 in test [6]; 3.27 in [7]. In addition, the geometric mean in [8] worked out at 3.68; in [9] it was 4.38; in test [10], 5.23; in test [11], 126; in [12], 6.37; in test [13], 29. In the test with MUC1-SEA-His protein, this molecule came in with a koff of 0.00133 s⁻¹.

B2: VH3 + VL5 (antibody, V domains shown)
VH: B1 VH with T76I, V79A, S85R, E89D
VL: DIVMTQSPSLLSASTGDRVTISCRASQSIGTSIHWYQQKPGKAPELLIYYASESISGVPSRFSGSGSGTDFTLTISCLQSEDFATYYCQQSNNWPLTFGQGTKVEIK
notes: Humanized IgG expressed in HEK293; also called humanized antibody VH3+VL5
In the test with MUC1-SEA-His protein, B2 had a koff of 0.023 s⁻¹.

B3: VH4 + VL5 (antibody, V domains shown)
VH: B1 VH with S17T, V20I, A24V, R38Q, Q43K, M70I, R72A, S77D, V79A, S119R
VL: B2 VL
notes: Humanized IgG expressed in HEK293; also called humanized antibody VH4+VL5
The molecule B3 had a koff with MUC1-SEA-His protein of 0.0578 s⁻¹.

B4: VH1 + VL5 (antibody, V domains shown)
VH: B1 VH with A16S, M70I, R72A, T74K, V79A
VL: B2 VL
notes: Humanized IgG expressed in HEK293; also called humanized antibody VH1+VL5
Take B4: in the test with MUC1-SEA-His protein, the koff was 0.0302 s⁻¹.

B5: VH2 + VL5 (antibody, V domains shown)
VH: B1 VH
VL: B2 VL
notes: Humanized IgG expressed in HEK293; also called humanized antibody VH2+VL5
In the test with MUC1-SEA-His protein, B5 gave a koff of 0.0193 s⁻¹.

B6: VH4 + VL4 (antibody, V domains shown)
VH: B1 VH with S17T, V20I, A24V, R38Q, Q43K, M70I, R72A, S77D, V79A, S119R
VL: B2 VL with D1A, V3Q, M4L, L10S, T15V, S22T, E45K, C77S, S80P, Q100G
notes: Humanized IgG expressed in HEK293; also called humanized antibody VH4+VL4
In the test with MUC1-SEA-His protein, B6 gave a koff of 0.0243 s⁻¹.

B7: VH5 + VL3 (antibody, V domains shown)
VH: EVQLVQSGAEVKKPGESLKISCKGSGYAFSNFWMNWVRQMPGKGLEWMGQIYPGDGDTNYNGKFKGQVTISADKSISTAYLQWSSLKASDTAMYYCARSYYRSAWFAYWGQGTLVTVSL
VL: EIVLTQSPATLSLSPGERATLSCRASQSIGTSIHWYQQKPGQAPRLLIYYASESISGIPARFSGSGSGTDFTLTISSLEPEDFAVYYCQQSNNWPLTFGGGTKVEIK
notes: Humanized IgG expressed in HEK293; also called humanized antibody VH5+VL3
On to B7, for which a half-maximal effect in test [1] (EC50) was put at 21.9 nM. For the same molecule, the geometric mean in [2] came to 126; in test [3], 167; in test [4], 170; in test [5], 141; in test [6], 2.82; in test [7], 3.27. Further, the geometric mean in test [8] was determined as 4.13; in [9] it was 8.05; in [10], 15.5; in [11], 110; in test [12], 31; in test [13], 61.5. In the test with MUC1-SEA-His protein, the koff turned out to be 0.0164 s⁻¹.

B8: VH4 + VL2 (antibody, V domains shown)
VH: B1 VH with S17T, V20I, A24V, R38Q, Q43K, M70I, R72A, S77D, V79A, S119R
VL: B7 VL with L4M, L13V, D70E, E79Q, P80S
notes: Humanized IgG expressed in HEK293; also called humanized antibody VH4+VL2
For B8, the koff with MUC1-SEA-His protein was found to be 0.0315 s⁻¹.

B9: VH5 + VL4 (antibody, V domains shown)
VH: B7 VH
VL: B2 VL with D1A, V3Q, M4L, L10S, T15V, S22T, E45K, C77S, S80P, Q100G
notes: Humanized IgG expressed in HEK293; also called humanized antibody VH5+VL4
In test [1], B9 registered an EC50 of 20.6 nM. Also, the geometric mean in test [2] amounted to 202; in test [3], 193; in [4], 199; in [5], 190; in [6], 2.84; in test [7], 3.52. The geometric mean in [8] came out at 4.01; in test [9], 5.71; in test [10], 15.3; in test [11], 152; in test [12], 28.6; in [13], 67.1. Moreover, the koff with MUC1-SEA-His protein came out at 0.0179 s⁻¹.

B10: VH5 + VL5 (antibody, V domains shown)
VH: B7 VH
VL: B2 VL
notes: Humanized IgG expressed in HEK293; also called humanized antibody VH5+VL5
On to B10, for which the koff with MUC1-SEA-His protein was determined as 0.0207 s⁻¹.

B11: VH3 + VL2 (antibody, V domains shown)
VH: B1 VH with T76I, V79A, S85R, E89D
VL: B7 VL with L4M, L13V, D70E, E79Q, P80S
notes: Humanized IgG expressed in HEK293; also called humanized antibody VH3+VL2
Molecule B11 displayed an off-rate (koff) with MUC1-SEA-His protein of 0.0195 s⁻¹.

B12: VH4 + VL3 (antibody, V domains shown)
VH: B1 VH with S17T, V20I, A24V, R38Q, Q43K, M70I, R72A, S77D, V79A, S119R
VL: B7 VL
notes: Humanized IgG expressed in HEK293; also called humanized antibody VH4+VL3
B12 showed a koff with MUC1-SEA-His protein of 0.0237 s⁻¹.

B13: VH5 + VL2 (antibody, V domains shown)
VH: B7 VH
VL: B7 VL with L4M, L13V, D70E, E79Q, P80S
notes: Humanized IgG expressed in HEK293; also called humanized antibody VH5+VL2
For the molecule B13, in the test with MUC1-SEA-His protein, the koff came to 0.0228 s⁻¹.

B14: VH1 + VL3 (antibody, V domains shown)
VH: B1 VH with A16S, M70I, R72A, T74K, V79A
VL: B7 VL
notes: Humanized IgG expressed in HEK293; also called humanized antibody VH1+VL3
The molecule B14 registered a koff with MUC1-SEA-His protein of 0.0225 s⁻¹.

B15: VH2 + VL2 (antibody, V domains shown)
VH: B1 VH
VL: B7 VL with L4M, L13V, D70E, E79Q, P80S
notes: Humanized IgG expressed in HEK293; also called humanized antibody VH2+VL2
For the molecule B15, in the test with MUC1-SEA-His protein, the koff is 0.0166 s⁻¹.

B16: VH1 + VL2 (antibody, V domains shown)
VH: B1 VH with A16S, M70I, R72A, T74K, V79A
VL: B7 VL with L4M, L13V, D70E, E79Q, P80S
notes: Humanized IgG expressed in HEK293; also called humanized antibody VH1+VL2
As for B16, the koff with MUC1-SEA-His protein worked out at 0.0294 s⁻¹.
